Experimental findings from publication PMC9919357 are described below.

For the experiment, the target named is Neuropeptide Y (TAMRA-NPY) (Sus scrofa), P01304.

B1: Neuropeptide Y receptor type 2 (Y2R-A202C), P49146 (protein)
chain: MGPIGAEADENQTVEEMKVEQYGPQTTPRGELVPDPEPELIDSTKLIEVQVVLILAYASIILLGVIGNSLVIHVVIKFKSMRTVTNFFIANLAVADLLVNTLALPFTLTYTLMGEWKMGPVLCHLVPYAQGLAVQVSTITLTVIALDRHRAIVYHLESKISKRISFLIIGLAWGISALLASPLAIFREYSLIEIIPDFEIVCCTEKWPGEEKSIYGTVYSLSSLLILYVLPLGIISFSYTRIWSKLKNHVSPGAANDHYHQRRQKTTKMLVAVVVVFAVSWLPLHAFQLAVDIDSQVLDLKEYKLIFTVFHIIAMASTFANPLLYGWMNSNYRKAFLSAFRCEQRLDAIHSEVSVTFKAKKNLEVRKNSGPNDSFTEATNV
Broadly, the Kd is the free concentration of one partner at which half of the binding sites on the other are occupied at equilibrium, for simple one-to-one binding. A lower Kd goes with tighter binding. In the case of B1, the Kd was found to be 32 nM.
